Test results taken from the supplement of paper PMC11780869.

test system: Bacillus subtilis; test: cleaved RNA product abundance (RNA/gDNA barcode ratio) relative to median wild-type variant (ratio to wild type); higher = more accumulation of the downstream cleavage product; settings: experiment (reporter, strain, medium): exp 2b: truncated aprE reporter, strain BJT200; cleavage site: cggR-gapA (positions -7 to +36 mutated)
In short: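 In LB at 37°C, B. subtilis cultures went from OD600 0.0003 to 0.3. Their chromosomes held barcoded reporter mRNAs, truncated aprE or tetM, with RNase Y cleavage-site windows mutagenized via oligos at a 9% error rate. Cleaved RNA, chosen by gel, was reverse transcribed and barcode-sequenced alongside genomic DNA barcodes with UMI collapsing, giving a per-construct RNA:gDNA ratio scaled to the median construct with the unmutated site. This scaled ratio is termed cleaved product abundance.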

| Sequence | cleaved RNA product abundance |
| --- | --- |
| ACAGACGAAGGAGCCGCAAAGAAGTTACTAAGGGATTAATAATCCCTCAATATAAATATCTCTCACTTATTTAAA | 0.169 |
| ACAGACGAAGGAGCCGCAAAAAAGTTATTAAGGGATGCATAATCCCTCAATATAAATATCTCTCACTTATTTAAA | 0.986 |
| ACAGACGAAGGAGCCGCAAAGAAGTAATTAAGGGATGAACAATCCCTCAATATAAATATCTCTCACTTATTTAAA | 0.181 |
| ACAGACGAAGGAGCCGCAAAGAAGTTATTAAGGCATGAATAATCCCCCAATATAAATATCTCTCACTTATTTAAA | 0.11 |
| ACAGACGAAGGAGCCGCAAAGAAGTTATTAAGGGATGAATAATCCCTCTATATACATATCTCTCACTTATTTAAA | 0.248 |
| ACAGACGAAGGAGCCGCAAAAAAGTTATTAAGGTATGAATAATCCCTCAATATAAATATCTCTCACTTATTTAAA | 0.121 |
| ACAGACGAAGGAGCCGCAAAGAAGTTAATAAGGGATGAATAAACCCTCAATATAAATATCTCTCACTTATTTAAA | 0.167 |
| ACAGACGAAGGAGCCGCAAATAAGTTATTAAGGGATGAATAATCCCACAATATAAATATCTCTCACTTATTTAAA | 0.233 |
| ACAGACGAAGGAGCCGCAAAGAAATTATTAAGGGATGAATAATGCCTCAATATAAATATCTCTCACTTATTTAAA | 0.172 |
| ACAGACGAAGGAGCCGCTAAGAAGTTATTAAGGGATGAATAATCCCTCAAGATAAATATCTCTCACTTATTTAAA | 0.249 |
| ACAGACGAAGGAGCCGCATAGAAGTTATTAAGGAATGAATAATCCCTCAATATAAATATCTCTCACTTATTTAAA | 0.082 |

same assay, conditions: experiment (reporter, strain, medium): exp 4a: truncated aprE reporter, strain BJT201 with 2% xylose (RNase J1 expressed); cleavage site: cggR-gapA (positions -7 to +36 mutated)

| Sequence | cleaved RNA product abundance |
| --- | --- |
| ACAGACGAAGGAGCCGCAAAGAAGTTACTAAGGGATTAATAATCCCTCAATATAAATATCTCTCACTTATTTAAA | 0.299 |
| ACAGACGAAGGAGCCGCAAATAAATTATTAAGGAATGAATAATCCCTCAATATAAATATCTCTCACTTATTTAAA | 0.195 |
| ACAGACGAAGGAGCCGCAAAAAAGTTATTAAGGGATGCATAATCCCTCAATATAAATATCTCTCACTTATTTAAA | 1.02 |
| ACAGACGAAGGAGCCGCAAAGAAGTTATTAATGGATGAATAATCCCTCATTATAAATATCTCTCACTTATTTAAA | 0.201 |
| ACAGACGAAGGAGCCGCAAAGCAGTTATTAAGGGATAAATAATCCCTCAATATAAATATCTCTCACTTATTTAAA | 0.625 |
| ACAGACGAAGGAGCCGCAACGAAGTTATTAAGGGATGAACAATCCCTCAATATAAATATCTCTCACTTATTTAAA | 0.631 |
| ACAGACGAAGGAGCCGCAAAGAAGTTATTAAGGGATGAATAATGCCCCAATATAAATATCTCTCACTTATTTAAA | 0.134 |
| ACAGACGAAGGAGCCGCAAAGAAGTTATTAAGGGTTGAATAATCCCTCAATATACATATCTCTCACTTATTTAAA | 0.404 |
| ACAGACGAAGGAGCCGCAAAGAAGTTATTAAGGGTCGAATAATCCCTCAATATAAATATCTCTCACTTATTTAAA | 0.211 |
| ACAGACGAAGGAGCCGCAAAGAAGTTATTAAGGGATGAATAATCCATCGATATAAATATCTCTCACTTATTTAAA | 0.112 |
| ACAGACGAAGGAGCCGCAAAGTAGTTATTAAGGGATGAATAATCCCTCAATCTAAATATCTCTCACTTATTTAAA | 0.0783 |
| ACAGACGAAGGAGCCGCAAAGAAGTTATTAAGGCATGAATAATCCCCCAATATAAATATCTCTCACTTATTTAAA | 0.0993 |
| ACAGACGAAGGAGCCGCAAACAAGTTATTAAGGGATGAATAATCCCTTAATATAAATATCTCTCACTTATTTAAA | 0.287 |
| ACAGACGAAGGAGCCGCAAAGAAGTTATTAACGGATGAATAATCCCTCAATATAGATATCTCTCACTTATTTAAA | 0.158 |
| ACAGACGAAGGAGCCGCATAGAAGTTATTTAGGGATGAATAATCCCTCAATATAAATATCTCTCACTTATTTAAA | 0.962 |
| ACAGACGAAGGAGCCGCAAAGAAGTTATTAAGGGATGAATAATCCCTCTATATACATATCTCTCACTTATTTAAA | 0.226 |
| ACAGACGAAGGAGCCGCAAGGAAGTTATTAAGGGATGAATAATCCTTCAATATAAATATCTCTCACTTATTTAAA | 0.43 |
| ACAGACGAAGGAGCCGCAAAGAACTTAATAAGGAATGAATAATCCCTCAATATAAATATCTCTCACTTATTTAAA | 0.133 |

| Sequence | cleaved RNA product abundance |
| --- | --- |
| ACAGACGAAGGAGCCGCAAAGAAGTTCTTAAGGGATTAATAATCCCTCAATATAAATATCTCTCACTTATTTAAA | 0.301 |
| ACAGACGAAGGAGCCGCAAAGAAGTAATTAACGGATGAATAATCCCTCAATATAAATATCTCTCACTTATTTAAA | 0.133 |
| ACAGACGAAGGAGCCGCAAAAAAGTTATTAAGGTATGAATAATCCCTCAATATAAATATCTCTCACTTATTTAAA | 0.17 |
| ACAGACGAAGGAGCCGCAAAGAACTTATTACGGGATGAATAATCCCTCAATATAAATATCTCTCACTTATTTAAA | 0.248 |
| ACAGACGAAGGAGCCGCAAAGAAGTTATTAAAGAATGAATAATACCTCAATATAAATATCTCTCACTTATTTAAA | 0.159 |
| ACAGACGAAGGAGCCGCAAAGAAGTTAATAAGGGATGAATAAACCCTCAATATAAATATCTCTCACTTATTTAAA | 0.177 |
| ACAGACGAAGGAGCCGCAAATAAGTTATTAAGGGATGAATAATCCCACAATATAAATATCTCTCACTTATTTAAA | 0.187 |
| ACAGACGAAGGAGCCGCAATGAAGTTATTAAGGGATGTATAATCCCTCAATATAAATATCTCTCACTTATTTAAA | 1.53 |
| ACAGACGAAGGAGCCGCAAAGAAATTATTAAGGGATGAATAATGCCTCAATATAAATATCTCTCACTTATTTAAA | 0.132 |
| ACAGACGAAGGAGCCGCAAAGAAGTTATTAAGGGATTAATATTCCCTCAATATAAATATCTCTCACTTATTTAAA | 1.13 |
| ACAGACGAAGGAGCCGCAAAAAAGTTATTAACGGATTAATAATCCCTCAATATAAATATCTCTCACTTATTTAAA | 0.142 |
| ACAGACGAAGGAGCCGCAAAGAAGTTATTATGGGATGAAAAATCCCTCAATATAAATATCTCTCACTTATTTAAA | 0.334 |
| ACAGACGAAGGAGCCGCTAAGAAGTTATTAAGGGATGAATAATCCCTCAAGATAAATATCTCTCACTTATTTAAA | 0.322 |
| ACAGACGAAGGAGCCGCATAGAAGTTATTAAGGAATGAATAATCCCTCAATATAAATATCTCTCACTTATTTAAA | 0.135 |
| ACAGACGAAGGAGCCGCAAAGAATTTATTAAGGGATGAATAACCCCTCAATATAAATATCTCTCACTTATTTAAA | 0.452 |
| ACAGACGAAGGAGCCGCAAAGAAGTGATTAAGGAATGAATAATCCCTCAATATAAATATCTCTCACTTATTTAAA | 0.115 |
| ACAGACGAAGGAGCCGCACAGAAGTTATTAAGGAATGAATAATCCCTCAATATAAATATCTCTCACTTATTTAAA | 0.143 |

same assay, conditions: experiment (reporter, strain, medium): exp 8a: truncated aprE reporter, strain BJT201 with 2% xylose (RNase J1 expressed); cleavage site: glnRA (positions -5 to +31 mutated)

| Sequence | cleaved RNA product abundance |
| --- | --- |
| CGACATGTCCCGCTTCTTTCATTAATCCGTTAGCAACTGTTTTGCTATATATATTTATCTTTTAAGAGGAGGAAT | 1.3 |
| CGACATGTCCCGCTTCTTTCATTAATCCGTTAGCAACTGTCTTACTATATACATTTACCTTTTAAGAGGAGGAAT | 0.324 |
| CGACATGTCCCGCTTCTTTCATTAATCCGTTAGCAACTGTTTTGGTAGATACATTTACCTTTTAAGAGGAGGAAT | 0.115 |
| CGACATGTCCCGCTTCTTTCATTAATCCGTTAGCAACTGTATTGCTATATACATTTACATTTTAAGAGGAGGAAT | 1.47 |
| CGACATGTCCCGCTTCTTTCATTATTCCGTTAGCACCTGTTTTGCTATATACATTTACCTTTTAAGAGGAGGAAT | 1.18 |
| CGACATGTCCCGCTTCTTTCATTAATCCGTTAGCAACTGTTTTGCAATATACATTTACCATTTAAGAGGAGGAAT | 0.562 |
| CGACATGTCCCGCTTCTTTCATTAAACCGTTAGCAACTGTTTTGCTTTATACATTTACCTTTTAAGAGGAGGAAT | 0.165 |
| CGACATGTCCCGCTTCTTTCATTAATCCGTTAGCAACTGTTTTACTATATACGTTTACCTTTTAAGAGGAGGAAT | 0.455 |
| CGACATGTCCCGCTTCTTTCATTAATCCGTTATCAACTGTTTAGCTATATACATTTACCTTTTAAGAGGAGGAAT | 0.243 |
| CGACATGTCCCGCTTCTTTCATTAATCCGTTAGCAATTGTTTTGCTATATACATTCACCTTTTAAGAGGAGGAAT | 0.849 |
| CGACATGTCCCGCTTCTTTCATTAATCCGTAAACAACTCTTTTGCTATATACATTTACCTTTTAAGAGGAGGAAT | 0.202 |
| CGACATGTCCCGCTTCTTTCATTAATCCCTTAGCAACTGATTTGCTATATACATTTACCTTTTAAGAGGAGGAAT | 0.25 |
| CGACATGTCCCGCTTCTTTCATTAATCCGTTAACAACTGTTTTGCCATATACATTTACCTTTTAAGAGGAGGAAT | 0.114 |
| CGACATGTCCCGCTTCTTTCATTAATCCGTTATCAACTGTTTTAATATATACATTTACCTTTTAAGAGGAGGAAT | 0.415 |
| CGACATGTCCCGCTTCTTTCATTACTCCGTTAGCAACTGTTTTGCTATATACACTTACCTTTTAAGAGGAGGAAT | 0.587 |
| CGACATGTCCCGCTTCTTTCATTAAACCGTTAGAAACTGTTTTGCTATATACATTTACCTTTTAAGAGGAGGAAT | 0.147 |
| CGACATGTCCCGCTTCTTTCATTAATCCGTTAGTAACTGTTTTGCTATATACATATACCTTTTAAGAGGAGGAAT | 0.305 |
| CGACATGTCCCGCTTCTTTCATTAATCCGTTAGCAACTGATTTGCCATATACATTTACCTTTTAAGAGGAGGAAT | 0.226 |
| CGACATGTCCCGCTTCTTTCATTAATCCGTTAGCAACTATTTTTCTATATACATTTACCTTTTAAGAGGAGGAAT | 0.613 |
| CGACATGTCCCGCTTCTTTCATTAATCCGTTAGCAAATGTTTGGCTATATACATTTACCTTTTAAGAGGAGGAAT | 0.43 |
| CGACATGTCCCGCTTCTTTCATTAAGCCGTTAGCAACTGTTTTGTTATATACATTTACCTTTTAAGAGGAGGAAT | 0.364 |
| CGACATGTCCCGCTTCTTTCATTAATCCGTTAGCAACTGTTTTGCTATATACATTGACCATTTAAGAGGAGGAAT | 0.525 |
| CGACATGTCCCGCTTCTTTCATTAATCCGTTAGCAACTGTTTGCTATATACATTTACCTTTTAAGAGGAGGAATT | 1.42 |
| CGACATGTCCCGCTTCTTTCATTAATCCGTTAGTAACTGTTTTCCTATATACATTTACCTTTTAAGAGGAGGAAT | 0.44 |
| CGACATGTCCCGCTTCTTTCATTATTCCGTTAGCAACTATTTTGCTATATACATTTACCTTTTAAGAGGAGGAAT | 1.91 |
| CGACATGTCCCGCTTCTTTCATTAATCCGTTAGCAACTGTTACGCTATATACATTTACCTTTTAAGAGGAGGAAT | 0.54 |
| CGACATGTCCCGCTTCTTTCATTAATTCGTTAGCAACTGTTTTGATATATACATTTACCTTTTAAGAGGAGGAAT | 0.498 |
